# Assay results as given in article PMC7360481.
# Target: Sox2 (Mus musculus, UniProt P48432 1-319)
# Assay: EMSA
# Chain of Sox2 (P48432 whole entry): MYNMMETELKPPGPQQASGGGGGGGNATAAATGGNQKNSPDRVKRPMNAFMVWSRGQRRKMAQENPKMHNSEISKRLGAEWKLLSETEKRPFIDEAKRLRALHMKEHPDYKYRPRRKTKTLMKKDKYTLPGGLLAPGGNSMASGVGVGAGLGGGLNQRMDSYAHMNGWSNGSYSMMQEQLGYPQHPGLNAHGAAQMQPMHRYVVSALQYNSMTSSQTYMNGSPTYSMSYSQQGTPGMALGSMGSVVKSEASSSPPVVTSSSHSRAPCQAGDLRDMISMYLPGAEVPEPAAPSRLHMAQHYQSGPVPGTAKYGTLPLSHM
binder,measurement,value
RNA/DNA hybrid (DNA:RNA) RNA: CCUACUACCUGUGCCUUUAAGUACCUUUUCUGUCUUCUA DNA: TAGAAGACAGAAAAGGTACTCTAAAGGCACAGGTAGTAGG,binding result,no binding
